Measurements as given in the supplement of paper PMC9170038.

System: MS2 coat protein
Assay: apparent KD of MS2 coat protein; designed switch direction (-1 OFF switch, 1 ON switch): -1; higher = weaker reporter binding
In short: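 On Illumina chips, designed RNA switches with common flanks were made by stalled E. coli RNA polymerase. Titrations with SNAP-549-labelled MS2 coat protein, doubling from 0.7 or 1.5 nM to 3 µM, were done with no input, with 200 uM small-molecule ligand, or with an oligonucleotide input. Apparent KD is the median per design over clusters, from curve fits of normalised cluster fluorescence.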

[1] = Eterna round: R95, input ligand: FMN 200 uM
[2] = Eterna round: R95, input ligand: microRNA oligo, concentration not stated
[3] = Eterna round: R95, input ligand: none

GGAUUUACUGAGGAUAUUACAUCACCCGAUUGAUAAGAAGGCAGAACAUGAGGAUCACCCAUGUGGGUAGUCAA [Polaris3] (Eterna round: R97, puzzle: Exclusion 6)
apparent KD of MS2 coat protein (input ligand: FMN 200 uM): 70.1 nM | apparent KD of MS2 coat protein (input ligand: none): 111 nM

GGCAUAAUGUAGGAUAUCGUAAUGGAAACAUUACGAGAAGGGCAAACAUGAGGAUCACCCAUGUUCCUUAAGCC [Mat - Exclusion 6 - Eli Mod - D70] (puzzle: Exclusion 6)
apparent KD of MS2 coat protein [1]: 18.7 nM | apparent KD of MS2 coat protein [2]: 14.2 nM | apparent KD of MS2 coat protein [3]: 15.4 nM

GGCAUAAUGUAGGAUAUCGUAUUGGAAACAAUACGAGAAGGGCAAACAUGAGGAUCACCCAUGUUCCUUAAGCC [Mat - Exclusion 6 - Eli Mod - D71] (puzzle: Exclusion 6)
apparent KD of MS2 coat protein [2]: 15.1 nM

GGCAUCGGAGGAUAUACUAAUGGUGAUGCCCGAAGCUUUCUACUUGAGGAUCACCCAAGUAGAAGGCCGAUGCC [jl-ex2.4.80 ViennaUCT mod] (Eterna round: R97, puzzle: Exclusion 2)
apparent KD of MS2 coat protein (input ligand: FMN 200 uM): 11 nM | apparent KD of MS2 coat protein (input ligand: none): 13.1 nM

GGCAUGUAAGGAUAUCUAUCGGUGAGAAAACCAAUUGGGCAAGAGAAGGUACAUGAGGAUCACCCAUGUGGACC [Eternabot (L1) Solution 9] (Eterna round: R97, puzzle: Exclusion 4)
apparent KD of MS2 coat protein (input ligand: FMN 200 uM): 135 nM | apparent KD of MS2 coat protein (input ligand: none): 44 nM

GGCCGGCGAGGAUAUACCGAAUGAAGGUGAUAUGAAUGAUUACAUGAGGAUCACCCAUGUAGAAGGCGCCGGCC [Default title] (Eterna round: R97, puzzle: Exclusion 2)
apparent KD of MS2 coat protein (input ligand: FMN 200 uM): 327 nM | apparent KD of MS2 coat protein (input ligand: none): 146 nM

GGCCUUCCACGAGCUUUUUACAUGAGGAUCACCCAUGUGGUUUUUAGUCUUAUCCCGGGCCCGCUGUCGGGCCCGGG [-32.2, -52.8, A 13%] (Eterna round: R97, puzzle: Sensor, turn-off variant 1)
apparent KD of MS2 coat protein (input ligand: FMN 200 uM): 29.1 nM | apparent KD of MS2 coat protein (input ligand: none): 33 nM

GGCGAAGUAGGAUAUACAUGAGGAUCACCCAUGUAACCAGAUGGCGUAGGUCUUCUAUGUAGAAGGGCUACGCC [jl-ex3-4.34 ViennaUCT mod] (Eterna round: R97, puzzle: Exclusion 3)
apparent KD of MS2 coat protein (input ligand: FMN 200 uM): 16.9 nM | apparent KD of MS2 coat protein (input ligand: none): 17 nM

GGCGACCUAGGAUAUACAUGAGGAUCACCCAUGUUUAUCUAUUAGAUGAAGACGGGUUGUAGAAGGAGGAUAUU [JL Geriin mod] (Eterna round: R96, puzzle: Exclusion 3)
apparent KD of MS2 coat protein (input ligand: FMN 200 uM): 19.5 nM | apparent KD of MS2 coat protein (input ligand: microRNA oligo, concentration not stated): 14.6 nM | apparent KD of MS2 coat protein (input ligand: none): 20.2 nM

GGCGACCUAGGAUAUACAUGAGGAUCACCCAUGUUUAUCUAUUAGAUGAAGACGGGUUGUAGAAGGAGGAUAUU [JL Geriin mod] (puzzle: Exclusion 3)
apparent KD of MS2 coat protein [2]: 14.6 nM

GGCGGACAUGAGGAUCACCCAUGUCAGGAUAUGGUGCGAUCGUCGAUAGACGAUAGCACCAGAAGGGACACGCC [Mat - Exclusion 1 - Eli Mod - D1] (Eterna round: R97, puzzle: Exclusion 1)
apparent KD of MS2 coat protein (input ligand: FMN 200 uM): 22.2 nM | apparent KD of MS2 coat protein (input ligand: none): 19.8 nM

GGCGGGACAGGAUAUCUAGCACUAAACAUGAGGAUCACCCAUGUGGUGGUCGCAGGUGUCAGAGAAGGGUCAAAAG [Atenabe] (puzzle: Exclusion 5)
apparent KD of MS2 coat protein [1]: 193 nM | apparent KD of MS2 coat protein [2]: 616 nM | apparent KD of MS2 coat protein [3]: 1480 nM

GGCGUCGUGUAGGAUAUGAAUUGAAAGGCUUCGUCAGAAGGGCACACAUGAGGAUCACCCAUGUGACAGCUGAG [Eternabot (L1) Solution 78] (Eterna round: R97, puzzle: Exclusion 6)
apparent KD of MS2 coat protein (input ligand: FMN 200 uM): 20 nM | apparent KD of MS2 coat protein (input ligand: none): 19.9 nM
